Assay results taken from patent US20090221474A1.

How the values were obtained:
[1] = target: bovine HD1 (bovine thymus trapoxin binding proteins p46-p49) (bovine) (UniProt Q32PJ8); experiment: depletion of bovine thymus Mono Q fractions by the K-trap affinity matrix
[2] = target: bovine HD1 (bovine thymus trapoxin binding proteins p46-p49) (bovine) (UniProt Q32PJ8); experiment: cell-based or functional assay

bovine HD1 (bovine thymus trapoxin binding proteins p46-p49) (bovine), sequence (Q32PJ8 whole entry): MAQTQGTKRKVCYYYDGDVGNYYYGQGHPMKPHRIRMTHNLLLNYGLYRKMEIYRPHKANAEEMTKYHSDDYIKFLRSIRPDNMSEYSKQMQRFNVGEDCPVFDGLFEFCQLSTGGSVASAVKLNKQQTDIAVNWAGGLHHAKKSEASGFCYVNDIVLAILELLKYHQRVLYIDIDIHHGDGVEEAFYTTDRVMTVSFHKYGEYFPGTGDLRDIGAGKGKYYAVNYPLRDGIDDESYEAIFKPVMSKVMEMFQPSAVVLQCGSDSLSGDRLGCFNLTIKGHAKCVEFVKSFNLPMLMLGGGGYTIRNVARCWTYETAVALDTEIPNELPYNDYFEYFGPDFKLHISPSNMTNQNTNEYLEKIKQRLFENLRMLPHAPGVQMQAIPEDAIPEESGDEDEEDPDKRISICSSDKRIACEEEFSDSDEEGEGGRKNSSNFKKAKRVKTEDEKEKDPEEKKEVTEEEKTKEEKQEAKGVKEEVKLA

percent of trapoxin binding and histone deacetylase activity depleted [1] [%]	inhibition of histone deacetylase activity [2] [nM]	Substance
90		K-trap affinity matrix (peptide)
	20	trapoxin (peptide)
